From article doi:10.1101/505453

Molecular target: Oryza sativa hyperosmolality-gated protein OsOSCA1.2 (Oryza sativa (rice))
Assay: SEC-MALS

## Oryza sativa hyperosmolality-gated protein OsOSCA1.2 (natural protein)
  stoichiometry N: 2
